Patent US20230002480A1

What was measured:
Test in all cases: cell-based or functional assay
[1] = molecular target: HIV-1 Env of pseudovirus 1054_07_TC4_1499 (HIV-1)
[2] = molecular target: HIV-1 Env of pseudovirus 231965.c01 (HIV-1)
[3] = molecular target: HIV-1 Env of pseudovirus 235-47 (HIV-1)
[4] = molecular target: HIV-1 Env of pseudovirus 3365.v2.c2 (HIV-1)
[5] = molecular target: HIV-1 Env of pseudovirus 3817.v2.c59 (HIV-1)
[6] = molecular target: HIV-1 Env of pseudovirus 6041.v3.c23 (HIV-1)
[7] = molecular target: HIV-1 Env of pseudovirus 62357_14_D3_4589 (HIV-1)
[8] = molecular target: HIV-1 Env of pseudovirus 6480.v4.c25 (HIV-1)
[9] = molecular target: HIV-1 Env of pseudovirus 6540.v4.c1 (HIV-1)
[10] = molecular target: HIV-1 Env of pseudovirus 6952.v1.c20 (HIV-1)
[11] = molecular target: HIV-1 Env of pseudovirus A07412M1.vrc12 (HIV-1)
[12] = molecular target: HIV-1 Env of pseudovirus BJOX025000.01.1 (HIV-1)
[13] = molecular target: HIV-1 Env of pseudovirus BJOX028000.10.3 (HIV-1)
[14] = molecular target: HIV-1 Env of pseudovirus C3347.c11 (HIV-1)
[15] = molecular target: HIV-1 Env of pseudovirus CNE20 (HIV-1)
[16] = molecular target: HIV-1 Env of pseudovirus CNE30 (HIV-1)
[17] = molecular target: HIV-1 Env of pseudovirus CNE5 (HIV-1)
[18] = molecular target: HIV-1 Env of pseudovirus CNE58 (HIV-1)
[19] = molecular target: HIV-1 Env of pseudovirus Ce0393_C3 (HIV-1)
[20] = molecular target: HIV-1 Env of pseudovirus Ce0682_E4 (HIV-1)
[21] = molecular target: HIV-1 Env of pseudovirus Ce1086_B2 (HIV-1)
[22] = molecular target: HIV-1 Env of pseudovirus Ce1176_A3 (HIV-1)
[23] = molecular target: HIV-1 Env of pseudovirus Ce704809221_1B3 (HIV-1)
[24] = molecular target: HIV-1 Env of pseudovirus Du172.17 (HIV-1)
[25] = molecular target: HIV-1 Env of pseudovirus HIV-16055-2.3 (HIV-1)
[26] = molecular target: HIV-1 Env of pseudovirus SC05_8C11_2344 (HIV-1)
[27] = molecular target: HIV-1 Env of pseudovirus SC422661.8 (HIV-1)
[28] = molecular target: HIV-1 Env of pseudovirus X1254_c3 (HIV-1)
[29] = molecular target: HIV-1 Env of pseudovirus X1632_S2_B10 (HIV-1)
[30] = molecular target: HIV-1 Env of pseudovirus X2088_c9 (HIV-1)
[31] = molecular target: HIV-1 Env of pseudovirus X2131_C1_B5 (HIV-1)
[32] = molecular target: HIV-1 Env of pseudovirus ZM109F.PB4 (HIV-1)
[33] = molecular target: HIV-1 Env of pseudovirus ZM197M.PB7 (HIV-1)
[34] = molecular target: HIV-1 Env of pseudovirus ZM214M.PL15 (HIV-1)
[35] = molecular target: HIV-1 Env of pseudovirus ZM233M.PB6 (HIV-1)
[36] = molecular target: HIV-1 Env of pseudovirus ZM53M.PB12 (HIV-1)

Substance: 8ANC195 (antibody)
- neutralization IC50 [1]: 1.02 µg/mL
- neutralization IC80 [1]: 6.75 µg/mL
- IC50, titer in TZM.bl cells [2]: 2.36 µg/mL
- IC80, titer in TZM.bl cells [2]: 2.36 µg/mL
- IC50, titer in TZM.bl cells [3]: > 50 µg/mL
- IC80, titer in TZM.bl cells [3]: > 50 µg/mL
- neutralization IC50 [4]: > 30 µg/mL
- neutralization IC80 [4]: > 30 µg/mL
- IC50, titer in TZM.bl cells [5]: 1 µg/mL
- IC80, titer in TZM.bl cells [5]: 5.3 µg/mL
- IC50, titer in TZM.bl cells [6]: > 50 µg/mL
- IC80, titer in TZM.bl cells [6]: > 50 µg/mL
- neutralization IC50 [7]: > 50 µg/mL
- neutralization IC80 [7]: > 50 µg/mL
- IC50, titer in TZM.bl cells [8]: 0.16 µg/mL
- IC80, titer in TZM.bl cells [8]: 1.13 µg/mL
- IC50, titer in TZM.bl cells [9]: > 50 µg/mL
- IC80, titer in TZM.bl cells [9]: > 50 µg/mL
- IC50, titer in TZM.bl cells [10]: 1.38 µg/mL
- IC80, titer in TZM.bl cells [10]: 7.22 µg/mL
- IC50, titer in TZM.bl cells [11]: 2.25 µg/mL
- IC80, titer in TZM.bl cells [11]: 7.49 µg/mL
- IC50, titer in TZM.bl cells [12]: 4.96 µg/mL
- IC80, titer in TZM.bl cells [12]: > 50 µg/mL
- IC50, titer in TZM.bl cells [13]: 0.45 µg/mL
- IC80, titer in TZM.bl cells [13]: 2.83 µg/mL
- IC50, titer in TZM.bl cells [14]: > 50 µg/mL
- IC80, titer in TZM.bl cells [14]: > 50 µg/mL
- neutralization IC50 [15]: 0.5 µg/mL
- neutralization IC80 [15]: 3.19 µg/mL
- neutralization IC50 [16]: 7.52 µg/mL
- neutralization IC80 [16]: 40.5 µg/mL
- IC50, titer in TZM.bl cells [17]: 2.12 µg/mL
- IC80, titer in TZM.bl cells [17]: 9.67 µg/mL
- neutralization IC50 [18]: > 50 µg/mL
- neutralization IC80 [18]: > 50 µg/mL
- neutralization IC50 [19]: 6.77 µg/mL
- neutralization IC80 [19]: > 50 µg/mL
- neutralization IC50 [20]: 0.2 µg/mL
- neutralization IC80 [20]: 1.29 µg/mL
- neutralization IC50 [21]: 4.42 µg/mL
- neutralization IC80 [21]: 19.1 µg/mL
- neutralization IC50 [22]: 4.45 µg/mL
- neutralization IC80 [22]: 35.2 µg/mL
- neutralization IC50 [23]: 0.48 µg/mL
- neutralization IC80 [23]: 3.52 µg/mL
- neutralization IC50 [24]: > 30 µg/mL
- neutralization IC80 [24]: > 30 µg/mL
- neutralization IC50 [25]: 15.3 µg/mL
- neutralization IC80 [25]: > 50 µg/mL
- neutralization IC50 [26]: 0.47 µg/mL
- neutralization IC80 [26]: 3.06 µg/mL
- neutralization IC50 [27]: 0.29 µg/mL
- neutralization IC80 [27]: 4.67 µg/mL
- IC50, titer in TZM.bl cells [28]: 6.95 µg/mL
- IC80, titer in TZM.bl cells [28]: 6.95 µg/mL
- IC50, titer in TZM.bl cells [29]: 0.47 µg/mL
- IC80, titer in TZM.bl cells [29]: 4.11 µg/mL
- IC50, titer in TZM.bl cells [30]: > 50 µg/mL
- IC80, titer in TZM.bl cells [30]: > 50 µg/mL
- IC50, titer in TZM.bl cells [31]: 3.47 µg/mL
- IC80, titer in TZM.bl cells [31]: > 50 µg/mL
- neutralization IC50 [32]: > 30 µg/mL
- neutralization IC80 [32]: > 30 µg/mL
- neutralization IC50 [33]: 23.4 µg/mL
- neutralization IC80 [33]: > 50 µg/mL
- neutralization IC50 [34]: 0.91 µg/mL
- neutralization IC80 [34]: 12.3 µg/mL
- neutralization IC50 [35]: 7.39 µg/mL
- neutralization IC80 [35]: 43.5 µg/mL
- neutralization IC50 [36]: > 30 µg/mL
- neutralization IC80 [36]: > 30 µg/mL
